Laboratory results as given in publication PMC7116892 (Science (New York, N.Y.), 2021).

T1: Dic3, ODA intermediate chain (Tetrahymena thermophila, UniProt Q23FU1 1-670)
T1 sequence (looked up): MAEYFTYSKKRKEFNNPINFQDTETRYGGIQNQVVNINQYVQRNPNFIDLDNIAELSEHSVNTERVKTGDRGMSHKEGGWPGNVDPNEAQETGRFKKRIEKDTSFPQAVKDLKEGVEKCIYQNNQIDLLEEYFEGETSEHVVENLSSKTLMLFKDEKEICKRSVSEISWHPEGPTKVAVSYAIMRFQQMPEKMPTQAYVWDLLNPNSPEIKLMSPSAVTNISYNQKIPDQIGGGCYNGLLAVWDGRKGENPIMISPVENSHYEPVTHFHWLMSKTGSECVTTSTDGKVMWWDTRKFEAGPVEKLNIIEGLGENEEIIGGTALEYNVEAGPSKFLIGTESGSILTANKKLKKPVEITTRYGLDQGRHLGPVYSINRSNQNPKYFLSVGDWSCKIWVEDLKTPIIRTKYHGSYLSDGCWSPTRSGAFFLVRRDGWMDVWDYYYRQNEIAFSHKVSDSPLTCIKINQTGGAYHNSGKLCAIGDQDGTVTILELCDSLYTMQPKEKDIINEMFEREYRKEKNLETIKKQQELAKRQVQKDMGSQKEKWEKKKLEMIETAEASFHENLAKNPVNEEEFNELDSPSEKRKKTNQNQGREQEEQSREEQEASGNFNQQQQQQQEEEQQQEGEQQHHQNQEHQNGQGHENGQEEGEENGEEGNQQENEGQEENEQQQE

T2: Shulin (Q22YU3), recombinant full-length, C-terminal 2xStrep (Tetrahymena thermophila, UniProt Q22YU3 1-1200)
T2 sequence (looked up): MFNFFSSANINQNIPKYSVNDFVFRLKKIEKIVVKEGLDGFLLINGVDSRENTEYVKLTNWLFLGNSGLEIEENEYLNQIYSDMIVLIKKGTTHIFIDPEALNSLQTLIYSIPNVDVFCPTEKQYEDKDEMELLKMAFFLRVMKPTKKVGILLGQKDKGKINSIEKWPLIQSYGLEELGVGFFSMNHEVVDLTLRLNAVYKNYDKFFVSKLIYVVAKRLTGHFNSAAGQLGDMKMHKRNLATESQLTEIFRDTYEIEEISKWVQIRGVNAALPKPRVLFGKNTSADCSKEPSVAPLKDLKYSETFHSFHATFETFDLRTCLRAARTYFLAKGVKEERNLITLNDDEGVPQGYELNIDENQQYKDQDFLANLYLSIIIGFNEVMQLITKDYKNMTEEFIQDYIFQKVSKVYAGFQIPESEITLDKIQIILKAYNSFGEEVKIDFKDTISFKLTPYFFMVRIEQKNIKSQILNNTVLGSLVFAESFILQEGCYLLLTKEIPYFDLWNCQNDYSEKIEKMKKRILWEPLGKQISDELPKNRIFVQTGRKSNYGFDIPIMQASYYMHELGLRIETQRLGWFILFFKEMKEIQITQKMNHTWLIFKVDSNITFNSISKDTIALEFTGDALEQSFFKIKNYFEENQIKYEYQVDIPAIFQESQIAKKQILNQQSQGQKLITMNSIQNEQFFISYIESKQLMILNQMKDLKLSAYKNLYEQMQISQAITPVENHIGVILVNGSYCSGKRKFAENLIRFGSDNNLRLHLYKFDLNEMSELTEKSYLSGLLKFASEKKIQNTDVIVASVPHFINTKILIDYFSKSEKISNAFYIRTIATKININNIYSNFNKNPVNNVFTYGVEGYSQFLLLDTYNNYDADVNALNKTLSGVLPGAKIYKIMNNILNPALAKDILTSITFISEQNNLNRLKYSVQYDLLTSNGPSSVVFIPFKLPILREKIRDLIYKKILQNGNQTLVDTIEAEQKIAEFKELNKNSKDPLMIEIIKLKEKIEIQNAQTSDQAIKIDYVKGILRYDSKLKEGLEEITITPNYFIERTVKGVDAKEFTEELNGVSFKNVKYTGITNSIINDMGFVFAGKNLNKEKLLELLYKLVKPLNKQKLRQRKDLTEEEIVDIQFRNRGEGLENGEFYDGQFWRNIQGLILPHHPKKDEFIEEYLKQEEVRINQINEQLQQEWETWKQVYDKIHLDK

B1: Dic2, ODA intermediate chain (natural protein, Tetrahymena thermophila, UniProt I7M008 1-667, looked up)
chain: MPPKQTKVVASRKTVMPISRAGRAQIRRKDSNTQNNMNDQGMEDEEIDQQREGMKNQYEQLTAQELNEDMPSKMLEPKNPQAPKNITVYDYYTRKFKTDELVDQMIVHFSMDGDYIWKESNEYKTQEEIRDTKKALIKEAMRKQESEEPGANHDEEAIKQTLRNKFNYNTRECQTINPSIRERGVSTEPPPSDTICGNITQWEIFDAYYAEIMKDHQIENKKKKEVDQDKKQDQSMYSTSFKRCCKIMERMVVQNDQEDKYHDYRYYWSQGDNLEAGKNEGHLLPIWRFSNEKQRKKNVTSICWNPLYPDLFAVSLGSYDFTKQRMGLICLYSLKNTTHPEYAFNCEAGVMCLDFHPKSAALLAVGLYDGTVLVYDIRNKHKKPIYQSTVRNQKHTDPVWQVKWNPDTSKNYNFYSISSDGRVMNWILMKNKLEPEEVILLRLVGKNEEESTLIGLACGLCFDFNKFEPHIFLVGTEEGKIHKCSRAYSGQYQETYNGHLLAVYKVKWNNFHPRTFISASADWTVRIWDSKYTSQIICFDLSMMVVDAVWAPYSSTVFACATMDKVQVYDLNVDKLNKLAEQKIVKQPKLTNLSFNYKDPILLVGDSHGGVTLVKLSPNLCKSGPEIKQTEDKKAMEEFKNVKIEDYEREKMENLLAVVSKWEREDA
B2: Lc7b, roadblock ODA light chain (natural protein, Tetrahymena thermophila, UniProt Q22MV2 1-159, looked up)
chain: MIYKTSKEIQKSDQRIIQQRVENSIINNQIYQKSLKRKTSKRKVRHQANKKNFQKEMSEVEDTLNRIKTHKTVLGYLIVNSEGGVVRGAFKDEEESKNIANSIPLLTKKARSVVRDLDPTNDLVFLRIQTKLNEIMVAPDDEFSLIVIQTKGEKRDEND

How the values were obtained:
Test in all cases: cryo-EM structure
[1] = target: B2
[2] = target: B1
[3] = target: T1, Dic3, ODA intermediate chain
[4] = target: T2, Shulin (Q22YU3), recombinant …

Row | Binder | binding result [1] | binding result [2] | binding result [3] | binding result [4]
1 | Lc7, roadblock ODA light chain (natural protein, Tetrahymena thermophila, UniProt I7MHB1 1-133, looked up) MAQDINADDQLKQLSALEGANGYVIFNESGIPLKRHEKSISHEKAVHIAALVSDLWNVSKKVIQRDLKTPENDIEVIRLRTKHSYEYIITQSGDFTMLAIQLCGKAIEEAKKAAAAAAAAAVVQEENKEKEKK | binds | binds | binds | 
2 | Lc8, ODA light chain (natural protein, Tetrahymena thermophila, UniProt W7XJB1 1-111, looked up) MSDSDSDEGRVVEEPLPPHIIRFNDMAQHLLKKVIRQADVLIKENPQGLEKDIALNLVKFVKSQPEFKIGDGEWQCIIGKNFGCSLTFDANVLAFFDLLPSRKSILLFKSG |  | binds | binds | 
3 | B1 |  |  |  | binds
4 | Lc8f (unnamed Lc8-like protein, UniProt ID Q22R86), ODA light chain (natural protein, Tetrahymena thermophila, UniProt Q22R86 1-111, looked up) MASNQQQKEDPKEQQQQYKTFMGARVLWPPECADDILEGAIRETQDALKKFEIAREGQKIAEHLKKYMDDHFDPYWHVFFGKNFGCQAVHNKNRFIYFYIEKTAFLMYQTQ |  | binds | binds | 
5 | Lc9, Tctex-like ODA light chain (natural protein, Tetrahymena thermophila, UniProt A4VEB3 1-117, looked up) MGDTDKEYISEEVQKAIDDSVKQVFGIKDDSSQVTITYNKDKVNLWTQQIIDYTIRGLNKLGKHFKYCVTAILQQTNHAGISVQITAYQDTNTDGSLIQCYEINDIYAIVSVFAMAV |  | binds | binds | 
6 | Lc8e, ODA light chain (natural protein, Tetrahymena thermophila, UniProt Q24DI9 1-93, looked up) MGDHANEQIIDMPENSEMKSMKNDAFSQAKFAVENYKFENKISSHIKKFFDEKYGPNWHCVVGKHFNAYVSYDSKNFIFFYEGQLAILLYRKG |  | binds | binds | binds
7 | Lc8d, ODA light chain (natural protein, Tetrahymena thermophila, UniProt Q24CE5 1-87, looked up) MNHEPEVKATDMEEDMIKRVKEIAINAVKEYKQEKQIAHYIKYEFDKIDGYGWNCIVGRNFGSHIIHQTKKYIFFKINELCLLLWKA |  | binds | binds | binds
8 | B2 |  | binds | binds | 
